Source: patent publication US20190142860A1, “NUCLEIC ACID BASED TIA-1 INHIBITORS” (Aquinnah Pharmaceuticals, Inc., priority 2015, published 2019)

Columns and labels:
[1] = target: Nucleolysin TIA-1 (endogenous mouse TIA1) (mouse) (UniProt P52912); assay: TIA1 IP-MS, WT1 cortex
[2] = target: Nucleolysin TIA-1 (endogenous mouse TIA1) (mouse) (UniProt P52912); assay: TIA1 IP-MS, tau KO 3 cortex
[3] = target: Nucleolysin TIA-1 (endogenous mouse TIA1) (mouse) (UniProt P52912); assay: TIA1 IP-MS, tau KO 1 cortex
[4] = target: Nucleolysin TIA-1 (endogenous mouse TIA1) (mouse) (UniProt P52912); assay: TIA1 IP-MS, WT2 cortex
[5] = target: Nucleolysin TIA-1 (endogenous mouse TIA1) (mouse) (UniProt P52912); assay: TIA1 IP-MS, WT3 cortex
[6] = target: Nucleolysin TIA-1 (endogenous mouse TIA1) (mouse) (UniProt P52912); assay: TIA1 IP-MS, tau KO 2 cortex

Chain of UniProt P52912 (P52912 whole entry): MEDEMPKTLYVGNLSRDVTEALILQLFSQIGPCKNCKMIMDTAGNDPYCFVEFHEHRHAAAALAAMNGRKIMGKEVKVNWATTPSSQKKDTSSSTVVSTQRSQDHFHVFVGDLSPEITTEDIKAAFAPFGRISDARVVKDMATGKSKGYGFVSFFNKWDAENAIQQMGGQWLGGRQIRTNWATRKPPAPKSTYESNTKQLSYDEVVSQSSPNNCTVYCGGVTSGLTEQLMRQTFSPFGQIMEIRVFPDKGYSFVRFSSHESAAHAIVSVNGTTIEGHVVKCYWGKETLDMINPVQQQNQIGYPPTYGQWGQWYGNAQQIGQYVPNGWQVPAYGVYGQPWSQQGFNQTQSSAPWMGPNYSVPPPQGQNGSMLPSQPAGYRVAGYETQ

Row | total ion current (normalized to TIA1 = 1000) [1] | total ion current (normalized to TIA1 = 1000) [2] | total ion current (normalized to TIA1 = 1000) [3] | total ion current (normalized to TIA1 = 1000) [4] | total ion current (normalized to TIA1 = 1000) [5] | total ion current (normalized to TIA1 = 1000) [6] | Substance
1 | 0 | 0 | 0 | 0 | 218 | 97.8 | LanC-like protein 1 (from UniProt O89112 2-399)
2 | 0 | 0 | 10.6 | 408 | 0 | 0 | Leucine-rich repeat-containing protein 59 (from UniProt Q922Q8 1-307)
3 | 0 | 0 | 0 | 189 | 31.7 | 81.6 | Malate dehydrogenase, cytoplasmic (from UniProt P14152 2-334)
4 | 0 | 0 | 0 | 819 | 131 | 477 | Malate dehydrogenase, mitochondrial (from UniProt P08249 25-338)
5 | 0 | 0 | 0 | 116 | 0 | 36.1 | Microtubule-associated protein 6 (from UniProt Q7TSJ2 1-906)
6 | 0 | 0 | 0 | 136 | 85 | 12.2 | Mitochondrial glutamate carrier 1 (from UniProt Q9D6M3 1-323)
7 | 0 | 141 | 0 | 112 | 0 | 72.4 | Mitogen-activated protein kinase 1 (from UniProt P63085 2-358)
8 | 0 | 0 | 0 | 133 | 607 | 76 | Myelin-oligodendrocyte glycoprotein (from UniProt Q61885 29-246)
9 | 0 | 0 | 0 | 179 | 0 | 0 | NADH dehydrogenase [ubiquinone] flavoprotein 1, mitochondrial (from UniProt Q91YT0 21-464)
10 | 0 | 0 | 0 | 137 | 0 | 27 | NADH dehydrogenase [ubiquinone] iron-sulfur protein 2, mitochondrial (from UniProt Q91WD5 34-463)
11 | 0 | 0 | 0 | 366 | 60.8 | 36.9 | NADH dehydrogenase [ubiquinone] iron-sulfur protein 3, mitochondrial (from UniProt Q9DCT2 36-263)
12 | 0 | 474 | 10.5 | 98.9 | 0 | 0 | Nascent polypeptide-associated complex subunit alpha, muscle-specific form (from UniProt P70670 1-2187)
13 | 0 | 1570 | 0 | 0 | 0 | 0 | Nicotinamide phosphoribosyltransferase (from UniProt Q99KQ4 1-491)
14 | 0 | 0 | 0 | 555 | 0 | 133 | PH and SEC7 domain-containing protein 3 (from UniProt Q2PFD7 1-1037)
15 | 0 | 0 | 0 | 36.6 | 0 | 0 | Phosphatidylinositol 5-phosphate 4-kinase type-2 gamma (from UniProt Q91XU3 2-421)
16 | 0 | 0 | 0 | 17.1 | 0 | 54.7 | Phytanoyl-CoA hydroxylase-interacting protein (from UniProt Q8K0S0 1-330)
17 | 0 | 0 | 0 | 19.2 | 30.2 | 58.5 | Poly(rC)-binding protein 1 (from UniProt P60335 1-356)
18 | 0 | 0 | 0 | 50.7 | 0 | 86.4 | Polyadenylate-binding protein 1 (from UniProt P29341 1-636)
19 | 0 | 0 | 0 | 135 | 0 | 34.1 | Probable ATP-dependent RNA helicase DDX17 (from UniProt Q501J6 1-650)
20 | 0 | 0 | 0 | 172 | 37.7 | 137 | Prohibitin (from UniProt P67778 2-272)
21 | 0 | 0 | 0 | 440 | 171 | 292 | Prohibitin-2 (from UniProt O35129 2-299)
22 | 10.5 | 0 | 0 | 0 | 0 | 0 | Proteasome subunit alpha type-4 (from UniProt Q9R1P0 1-261)
23 | 0 | 0 | 0 | 0 | 259 | 0 | Protein Golgb1
24 | 0 | 0 | 0 | 219 | 0 | 27 | Protein NipSnap homolog 1 (from UniProt O55125 36-284)
25 | 0 | 0 | 0 | 81 | 0 | 0 | Protein NipSnap homolog 2 (from UniProt O55126 28-281)
26 | 0 | 0 | 0 | 69.2 | 13.8 | 36 | Protein disulfide-isomerase A3 (from UniProt P27773 25-505)
27 | 0 | 0 | 0 | 70.2 | 18.4 | 31.2 | Protein kinase C and casein kinase substrate in neurons protein 1 (from UniProt Q61644 1-441)
28 | 0 | 0 | 0 | 78.7 | 0 | 0 | Protein kinase C epsilon type (from UniProt P16054 1-737)
